Data on one substance can be found in publication PMC12065890.

For test [1], the target named is full-length Amh (SPR protein) (zebrafish). Kind of test: SPR.
Test [2] concerns the target Amh C-terminal domain (SPR protein) (zebrafish). Kind of test: SPR.

Consider “Bmpr2a domain protein (protein kinase domain of Bmpr2a, SPR protein) (domain or fragment)”, for which the values for the Kd in test [1] and in test [2] were 116 nM and 1390 nM, respectively.
